B1: human monoclonal antibody 28D9 (antibody, V domains shown)
VH: QVQLQQSGPGLVKPSQTLSLTCAISGDNVFSNSAAWNWIRQSPSRGLEWLGRTYYRSKWNNDYAVSVKGRITINPDTYKNQFSLQLNPVTPEDTAVYFCARVPMNRGGMDVWGQGTTVTVSS
VL: not shown
B2: human monoclonal antibody 1.6C7 (antibody, V domains shown)
VH: QVQLQQSGPGLVKPSQTLSLTCAISGDSVSSDSAAWNWIRQSPSRGLEWLGRTYFRSKWNNHYAVSVKSRITINPDTSKNQFSLLLNPVTPEDTAVYYCARATLARGALDYWGQGTLVTVSS
VL: not shown

What was measured:
[1] = target: GFP-tagged membrane-anchored full-length MHV spike protein (MHV, strain A59 (assumed as for the …, UniProt P11224)); test: immunostaining of cells or tissue
[2] = target: MHV spike S2 ectodomain (MHV, strain A59, UniProt P11224); test: ELISA
[3] = target: HCoV-HKU1 spike ectodomain (HCoV-HKU1, strain Caen1, UniProt E0YJ44, strain); test: ELISA
[4] = target: SARS-CoV-2 spike ectodomain (SARS-CoV-2, Wuhan-Hu-1, UniProt P0DTC2); test: BLI
[5] = target: HCoV-OC43 spike ectodomain (HCoV-OC43, strain Paris, UniProt Q696P8); test: BLI

| Binder | binding result [1] | binding result [2] | binding result [3] | Kd [4] | Kd [5] |
| --- | --- | --- | --- | --- | --- |
| B1 | binds | binds | no binding (tested: 10 μg/ml) | 5.96 nM | 7.45 nM |
| B2 | binds | binds | no binding (tested: 10 μg/ml) |  | 5.28 nM |

Reference: article doi:10.1101/2020.10.20.346916 (bioRxiv, 2020)
